The numbers were not newly measured in article PMC6503043, which cites them from elsewhere.

Where two headings read alike, the source gives them in different places.

One may read the Kd as the concentration at which binding is half-saturated.

Series [1] deals with CD28 (Homo sapiens) (UniProt P10747).
For series [2] the target is unchanged. This is another data set of the same source.

In the case of B7-1 (from UniProt P33681), in the series with CD28 (Homo sapiens) [1], the Kd was 5 µM.
On to B7-2 (from UniProt P42081), for which, in the series with CD28 (Homo sapiens) [2], the Kd is 20 µM.
